In US20220003782A1 (METAFORA BIOSYSTEMS, published 2022):

Legend:
CAT1/SLC7A1 [1] = molecular target: CAT1/SLC7A1 (UniProt P30825); assay: flow cytometry, HEK293T cells with siSMVT A (endogenous receptor), saturating ligand, Alexa488 anti-mouse IgG1
CAT1/SLC7A1 [2] = molecular target: CAT1/SLC7A1 (UniProt P30825); assay: flow cytometry, HEK293T cells with control siRNA siLUC (endogenous receptor), saturating ligand, Alexa488 anti-mouse IgG1
XPR1/SLC53A1 [3] = assay: flow cytometry, HEK293T cells with siSMVT A (endogenous receptor), saturating ligand, Alexa488 anti-mouse IgG1
Chain of XPR1/SLC53A1 (Q9UH99 whole entry): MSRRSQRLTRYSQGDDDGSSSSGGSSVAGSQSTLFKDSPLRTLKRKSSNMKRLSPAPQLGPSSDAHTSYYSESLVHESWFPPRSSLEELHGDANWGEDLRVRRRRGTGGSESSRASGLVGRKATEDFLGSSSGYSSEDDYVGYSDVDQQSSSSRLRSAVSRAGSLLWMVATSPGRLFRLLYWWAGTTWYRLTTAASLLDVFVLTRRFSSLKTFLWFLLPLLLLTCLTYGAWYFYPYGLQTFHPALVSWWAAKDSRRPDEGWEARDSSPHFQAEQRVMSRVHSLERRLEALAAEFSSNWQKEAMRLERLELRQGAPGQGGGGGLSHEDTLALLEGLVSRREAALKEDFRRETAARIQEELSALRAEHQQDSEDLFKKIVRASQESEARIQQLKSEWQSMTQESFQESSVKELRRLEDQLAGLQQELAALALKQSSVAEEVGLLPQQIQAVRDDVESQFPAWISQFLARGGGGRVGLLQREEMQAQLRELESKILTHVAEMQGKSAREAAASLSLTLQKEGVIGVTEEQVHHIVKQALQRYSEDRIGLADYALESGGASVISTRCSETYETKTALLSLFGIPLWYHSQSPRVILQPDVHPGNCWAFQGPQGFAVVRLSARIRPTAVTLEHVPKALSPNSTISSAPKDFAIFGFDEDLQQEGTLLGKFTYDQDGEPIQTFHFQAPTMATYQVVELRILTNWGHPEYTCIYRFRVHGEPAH

XPR1/SLC53A1 [4] = assay: flow cytometry, HEK293T cells with control siRNA siLUC (endogenous receptor), saturating ligand, Alexa488 anti-mouse IgG1
[5] = molecular target: GLUT1/SLC2A1 (glucose transporter type 1) (UniProt P11166); assay: flow cytometry, HEK293T cells with siSMVT A (endogenous receptor), saturating ligand, Alexa488 anti-mouse IgG1
Chain of GLUT1/SLC2A1 (glucose transporter type 1) (P11166 whole entry): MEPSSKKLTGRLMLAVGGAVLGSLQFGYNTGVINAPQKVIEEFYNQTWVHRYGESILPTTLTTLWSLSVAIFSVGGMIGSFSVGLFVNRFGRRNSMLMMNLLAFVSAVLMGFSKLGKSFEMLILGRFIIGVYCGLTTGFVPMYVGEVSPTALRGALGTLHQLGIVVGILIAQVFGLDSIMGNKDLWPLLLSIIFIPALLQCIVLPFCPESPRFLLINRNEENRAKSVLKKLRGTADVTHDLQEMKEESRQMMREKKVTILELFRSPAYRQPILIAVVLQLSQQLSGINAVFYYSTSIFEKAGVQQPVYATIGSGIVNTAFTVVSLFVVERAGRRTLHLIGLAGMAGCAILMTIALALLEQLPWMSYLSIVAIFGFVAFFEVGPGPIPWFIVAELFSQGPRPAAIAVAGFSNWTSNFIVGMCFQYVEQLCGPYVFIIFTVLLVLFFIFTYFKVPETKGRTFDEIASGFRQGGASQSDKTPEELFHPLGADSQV

[6] = molecular target: GLUT1/SLC2A1 (glucose transporter type 1) (UniProt P11166); assay: flow cytometry, HEK293T cells with control siRNA siLUC (endogenous receptor), saturating ligand, Alexa488 anti-mouse IgG1
[7] = molecular target: T1, sodium-dependent multivitamin transporter / solute carrier family 5 member 6 (SMVT/SLC5A6) (human, UniProt Q9Y289 1-635); assay: flow cytometry on HEK293T cells, siSMVT A against siLUC control
T1 construct: also called SLC5A6/SMVT
T1 sequence: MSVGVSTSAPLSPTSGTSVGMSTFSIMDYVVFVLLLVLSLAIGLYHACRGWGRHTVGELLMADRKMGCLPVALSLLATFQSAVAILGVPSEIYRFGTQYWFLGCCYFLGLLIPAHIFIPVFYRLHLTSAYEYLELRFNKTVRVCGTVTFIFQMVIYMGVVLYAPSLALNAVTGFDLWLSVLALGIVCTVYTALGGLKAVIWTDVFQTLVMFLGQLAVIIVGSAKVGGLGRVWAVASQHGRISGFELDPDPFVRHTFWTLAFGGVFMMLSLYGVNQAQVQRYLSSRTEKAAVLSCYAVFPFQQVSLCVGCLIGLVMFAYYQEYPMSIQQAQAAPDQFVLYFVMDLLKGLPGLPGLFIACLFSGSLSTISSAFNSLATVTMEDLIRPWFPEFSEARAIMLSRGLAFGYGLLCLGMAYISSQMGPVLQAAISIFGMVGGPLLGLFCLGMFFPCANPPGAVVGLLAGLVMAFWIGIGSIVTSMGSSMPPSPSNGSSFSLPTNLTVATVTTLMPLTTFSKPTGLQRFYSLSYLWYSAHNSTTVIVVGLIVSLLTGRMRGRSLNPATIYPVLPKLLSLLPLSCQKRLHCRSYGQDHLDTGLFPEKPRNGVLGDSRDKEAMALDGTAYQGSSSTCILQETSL

Chain of CAT1/SLC7A1 (P30825 whole entry): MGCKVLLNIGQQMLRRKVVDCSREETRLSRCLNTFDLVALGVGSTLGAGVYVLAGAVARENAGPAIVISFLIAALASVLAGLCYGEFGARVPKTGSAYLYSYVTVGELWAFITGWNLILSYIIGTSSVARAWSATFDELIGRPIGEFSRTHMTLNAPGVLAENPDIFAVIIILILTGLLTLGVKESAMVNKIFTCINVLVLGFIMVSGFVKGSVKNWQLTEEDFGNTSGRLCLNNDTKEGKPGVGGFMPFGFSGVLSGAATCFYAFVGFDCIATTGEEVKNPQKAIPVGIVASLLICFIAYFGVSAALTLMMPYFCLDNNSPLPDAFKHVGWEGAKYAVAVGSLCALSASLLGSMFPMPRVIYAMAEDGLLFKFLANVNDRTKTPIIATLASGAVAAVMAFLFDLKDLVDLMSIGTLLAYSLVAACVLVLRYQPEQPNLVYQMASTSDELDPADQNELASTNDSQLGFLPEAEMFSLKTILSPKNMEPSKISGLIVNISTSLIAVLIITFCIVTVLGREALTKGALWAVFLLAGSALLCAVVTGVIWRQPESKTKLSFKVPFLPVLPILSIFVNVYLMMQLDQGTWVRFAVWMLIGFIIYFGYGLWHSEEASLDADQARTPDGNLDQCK

Q: Which results are given for “RBD derived from the bovine leukemia virus (BLV), fusion protein with mFC (Fc fusion)”?
A: relative specific binding (delta of the geometric mean of the fluorescence intensity) (CAT1/SLC7A1 [1]): 110; relative specific binding (delta of the geometric mean of the fluorescence intensity) (CAT1/SLC7A1 [2]): 110

Q: What does the source list for “RBD from a xenotropic murine retrovirus (XRBD), fusion protein with mFC (Fc fusion)”?
A: relative specific binding (delta of the geometric mean of the fluorescence intensity) (XPR1/SLC53A1 [3]): 14.6; relative specific binding (delta of the geometric mean of the fluorescence intensity) (XPR1/SLC53A1 [4]): 12.6

Q: Which relative specific binding (delta of the geometric mean of the fluorescence intensity) [5] does the source give for “human T-cell leukemia virus type 2 (HTLV2)-RBD, fusion protein with mFC (Fc fusion)” here?
A: 21.3

Q: And the relative specific binding (delta of the geometric mean of the fluorescence intensity) [6]?
A: 18.3

B1: PERV-B RBD ligand fused to a mouse Fc fragment (SEQ ID NO: 13) (Fc fusion)
chain: KRLIDSSNPHRPLSLTWLIIDPDTGVTVNSTRGVAPRGTWWPELHFCLRLINPAVKSTPPNLVRSYGFYCCPGTEKEKYCGGSEESFCRRWSCVTSNDGDWKWPISLQDRVKFSFVNSGPGKYKVMKLYKDKSCSPSDLDYLKISFTEKGKQENIQKWINGMSWGIVFYKYGGGAGSTLTIRLRIEAGTEPPVAVGSVDVPRDCGCKPCICTVPEVSSVFIFPPKPKDVLTITLTPKVTCVVVDISKDDPEVQFSWFVDDVEVHTAQTQPREEQFNSTFRSVSELPIMHQDWLNGKEFKCRVNSAAFPAPIEKTISKTKGRPKAPQVYTIPPPKEQMAKDKVSLTCMITDFFPEDITVEWQWNGQPAENYKNTQPIMDTDGSYFVYSKLNVQKSNWEAGNTFTCSVLHEGLHNHHTEKSLSHSPGK
Q: B1 was tested. Which “fold drop of specific binding with anti-SMVT siRNA against siLUC” value [7] did it give?
A: > 2 fold
